Experimental data taken from patent publication US20110044985A1 (RINAT NEUROSCIENCE, published 2011).
Positions count from the first letter of the chain named. Names and notes keep the numbering of the source. No end group written: not given here.

Columns and labels:
[1] = target: T1, Biotinylated Aβ peptide with amino acids 26-40 and a glycine at the C-terminus (also: biotinylated (position not given here)); experiment: ELISA, biotinylated peptide on streptavidin-coated plate, goat anti-human kappa HRP
T1 peptide: SNKGAIIGLMVGGVVG
Description: (§1) Various Aβ peptides (assigned SEQ ID NO:18-26, 31, and 27-29 from top to bottom sequences) were immobilized on ELISA plates. Antibodies were incubated for 1 hour with various immobilized peptides. Antibody 6G bound to immobilized Aβ peptides were measured using goat anti-human kappa HRP conjugated secondary antibody. […] “NB” refers to no binding detected.
(§2) ELISA was used for measuring binding of antibody 6G and variants to biotinylated Aβ peptides. NUNC maxisorp plates were coated with 6 ug/ml of streptavidin (Pierce, 21122) in PBS pH 7.4 for more than 1 h at 4° C. Plates were blocked with 1% BSA in PBS buffer pH 7.4. After washing, biotinylated Aβ peptides in PBS pH 7.4 were incubated 1 hour at room temperature. Primary antibody (from cell supernatants, serum containing anti-Aβ antibody, or purified full antibody or Fabs at desired dilution) was incubated with the immobilized Aβ peptides for 1 h at room temperature. After washing, plates were incubated with secondary antibody, a HRP conjugated goat anti-human kappa chain antibody (MP Biomedicals, 55233) at 1:5000 dilution. After washing, bound secondary antibody was measured by adding TMB substrate (KPL, 50-76-02, 50-65-02). HRP reaction was stopped by adding 1M phosphoric acid and absorbance at 450 nm was measured.

[2] = target: T2, Biotinylated Aβ peptide with amino acids 24-33 and a glycine at the C-terminus (also: biotinylated (position not given here)); experiment: as above
T2 peptide: VGSNKGAIIGG
Description: as §1, §2

[3] = target: T3, Biotinylated Aβ peptide with amino acids 27-41 and a glycine at the C-terminus (also: biotinylated (position not given here)); experiment: as above
T3 peptide: NKGAIIGLMVGGVVIG
Description: as §1, §2

[4] = target: T4, Biotinylated Aβ peptide with amino acids 26-35 and a glycine at the C-terminus (also: biotinylated (position not given here)); experiment: as above
T4 peptide: SNKGAIIGLMG
Description: as §1, §2

28 KGAIIGLMVGGVVIAG = target: T5, 28 KGAIIGLMVGGVVIAG (also: biotinylated (position not given here)); experiment: as above
T5 construct: It differs from m21 (Aβ peptide 28-42, not biotinylated, no added glycine); also called Biotinylated Aβ peptide with amino acids 28-42 and a glycine at the C-terminus; 28-42 15-mer
T5 peptide: KGAIIGLMVGGVVIAG
Description: as §1, §2

[5] = target: T6, Biotinylated Aβ peptide with amino acids 19-33 and a glycine at the C-terminus (also: biotinylated (position not given here)); experiment: as above
T6 peptide: FFAEDVGSNKGAIIGG
Description: as §1, §2

Aβ1-42 = target: T7, Aβ1-42; experiment: ELISA, nonbiotinylated peptide on plate
T7 construct: also called 1-42 (WT); Aβ peptide 1-42
T7 sequence (peptide, as listed by the source): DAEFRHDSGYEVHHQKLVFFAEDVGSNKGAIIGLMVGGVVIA
Description: (§3) ELISA was used for measuring binding of antibody 6G and variants to nonbiotinylated Aβ peptides. NUNC maxisorp plates were coated with 2.5 ug/ml of Aβ peptides in PBS pH 7.4 for more than 1 hour at 4° C. Plates were blocked with 1% BSA in PBS buffer pH 7.4. Primary antibody (from cell supernatants, serum containing anti-Aβ antibody, or purified full antibody or Fabs at desired dilution) was incubated with the immobilized Aβ peptides for 1 h at room temperature. After washing, the plates were incubated with secondary antibody, a HRP conjugated goat anti-human kappa chain antibody (MP Biomedicals, 55233) at 1:5000 dilution. After washing, bound secondary antibody was measured by adding TMB substrate (KPL, 50-76-02, 50-65-02). The HRP reaction was stopped by adding 1M phosphoric acid and absorbance at 450 nm was measured.
(§4) All amino acid substitutions of the variants shown in Table 3 are described relative to the sequence of 6G. Binding was determined by ELISA described above with nonbiotinylated Aβ₁₋₄₀ or Aβ₁₋₄₂ immobilized on the surface of an ELISA plate.

Aβ1-40 = target: T8, Aβ1-40; experiment: ELISA, nonbiotinylated peptide on plate
T8 construct: also called 1-40 (WT); Aβ peptide 1-40
T8 sequence (peptide, as listed by the source): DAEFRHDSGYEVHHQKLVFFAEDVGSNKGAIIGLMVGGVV
Description: as §3, §4

B1: antibody 6G (antibody, V domains shown)
VH: QVQLVQSGAEVKKPGASVKVSCKASGYTFTTYAIHWVRQAPGQGLEWMGFTSPYSGVSNYNQKFKGRVTMTRDTSTSTVYMELSSLRSEDTAVYYCARFDNYDRGYVRDYWGQGTLVTVSS
VL: DIVMTQSPDSLAVSLGERATINCRASESVDNDRISFLNWYQQKPGQPPKLLIYAATKQGTGVPDRFSGSGSGTDFTLTISSLQAEDVAVYYCQQSKEFPWSFGGGTKVEIKR
notes: Full antibody; human IgG2a constant region with A330P331 to S330S331, human kappa; also called 6G monoclonal antibody; 6G full antibody
- binding result [1]: no binding (tested: 10 ug/ml)
- binding result [2]: no binding (tested: 10 ug/ml)
- binding result [3]: no binding (tested: 10 ug/ml)
- binding result [4]: no binding (tested: 10 ug/ml)
- binding result (28 KGAIIGLMVGGVVIAG): no binding (tested: 10 ug/ml)
- binding result [5]: no binding (tested: 10 ug/ml)

B2: 6G heavy chain mutant variant 7D (N101C) (antibody, V domains shown)
VH: QVQLVQSGAEVKKPGASVKVSCKASGYTFTTYAIHWVRQAPGQGLEWMGFTSPYSGVSNYNQKFKGRVTMTRDTSTSTVYMELSSLRSEDTAVYYCARFDCYDRGYVRDYWGQGTLVTVS
VL: B1 VL
- A450 ELISA (Aβ1-42): 0.31 A450

B3: 6G light chain mutant variant 10E (S95L) (antibody, V domains shown)
VH: B2 VH with C101N
VL: B1 VL with S95L
- A450 ELISA (Aβ1-42): 0.12 A450

B4: 6G heavy chain mutant variant 8H (N101H) (antibody, V domains shown)
VH: B2 VH with C101H
VL: B1 VL
- A450 ELISA (Aβ1-40): 0.21 A450

B5: 6G light chain mutant variant 7E (Q94R) (antibody, V domains shown)
VH: B2 VH with C101N
VL: B1 VL with Q94R
- A450 ELISA (Aβ1-42): 0.18 A450

B6: 6G light chain mutant variant 6E (E97P) (antibody, V domains shown)
VH: B2 VH with C101N
VL: B1 VL with E97P
- A450 ELISA (Aβ1-42): 0.2 A450

B7: 6G light chain mutant variant 5B (Q94G) (antibody, V domains shown)
VH: B2 VH with C101N
VL: B1 VL with Q94G
- A450 ELISA (Aβ1-42): 0.14 A450

B8: 6G light chain mutant variant 7F (Q94K) (antibody, V domains shown)
VH: B2 VH with C101N
VL: B1 VL with Q94K
- A450 ELISA (Aβ1-42): 0.19 A450
